Results on 125 sequences are retold here after the supplement of paper PMC9112550, “Optimization of the antimicrobial peptide Bac7 by deep mutational scanning” (BMC Biology, 2022).

The test system of the series is Escherichia coli TOP10. Briefly: shrunken log2 fold change of peptide-encoding DNA abundance (4.5 h post-induction vs induction); higher = less antimicrobial activity (less host growth inhibition). The conditions noted are these: time post-induction: 4.5 h; library: site-saturation at positions 5, 18, 19, 20.
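Further: peptides expressed intracellularly from a pBAD plasmid library in pooled LB shake-flask culture, induced with 0.3% L-arabinose, DNA abundance read by NGS, three biological replicates, DESeq2 with apeglm shrinkage.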

For RRIRNRPPRLPRPRPRPWEAPRP, the “shrunken log2 fold change” value is -0.173.

For RRIRVRPPRLPRPRPRPWHTPRP, the “shrunken log2 fold change” value is -0.33.

With RRIRMRPPRLPRPRPRPFITPRP, the “shrunken log2 fold change” value is -0.456.

Take RRIRFRPPRLPRPRPRPDPTPRP: the “shrunken log2 fold change” value came out at 0.0215.

As for RRIRFRPPRLPRPRPRPYELPRP, the “shrunken log2 fold change” value turned out to be 0.0447.

As to RRIRMRPPRLPRPRPRPEFKPRP, the “shrunken log2 fold change” value is 0.335.

As for RRIRWRPPRLPRPRPRPLVVPRP, the “shrunken log2 fold change” value worked out at 0.173.

For RRIRMRPPRLPRPRPRPMNYPRP, the “shrunken log2 fold change” value was -0.082.

Take RRIRTRPPRLPRPRPRPAQGPRP: the “shrunken log2 fold change” value was 0.228.

Turning to RRIRPRPPRLPRPRPRPPRIPRP, the “shrunken log2 fold change” value came out at 0.233.

Turning to RRIRMRPPRLPRPRPRPPDCPRP, the “shrunken log2 fold change” value is 0.865.

Take RRIRYRPPRLPRPRPRPQAEPRP: the “shrunken log2 fold change” value is -0.0183.

RRIRRRPPRLPRPRPRPTCYPRP: the “shrunken log2 fold change” value is -0.242.

Consider RRIRMRPPRLPRPRPRPCWTPRP, for which the “shrunken log2 fold change” value is -0.218.

For RRIRHRPPRLPRPRPRPTFWPRP, the “shrunken log2 fold change” value was 0.179.

Turning to RRIRLRPPRLPRPRPRPMRNPRP, the “shrunken log2 fold change” value came out at 0.372.

In the case of RRIRKRPPRLPRPRPRPKQYPRP, the “shrunken log2 fold change” value was -0.222.

Consider RRIRTRPPRLPRPRPRPMAQPRP, for which the “shrunken log2 fold change” value is 0.074.

Turning to RRIRKRPPRLPRPRPRPVQAPRP, the “shrunken log2 fold change” value stood at 0.741.

For the sequence RRIRERPPRLPRPRPRPVKKPRP, the “shrunken log2 fold change” value is -0.179.

Regarding RRIRCRPPRLPRPRPRPWSVPRP, the “shrunken log2 fold change” value is -0.34.

As to RRIRARPPRLPRPRPRPRTAPRP, the “shrunken log2 fold change” value is 0.844.

As to RRIRYRPPRLPRPRPRPPCAPRP, the “shrunken log2 fold change” value is 2.51.

As to RRIRGRPPRLPRPRPRPQCQPRP, the “shrunken log2 fold change” value is 0.316.

Turning to RRIRNRPPRLPRPRPRPRSCPRP, the “shrunken log2 fold change” value stood at 0.763.

For RRIRRRPPRLPRPRPRPRVKPRP, the “shrunken log2 fold change” value was 0.699.

On to RRIRVRPPRLPRPRPRPWTFPRP, for which the “shrunken log2 fold change” value was -0.0163.

Take RRIRWRPPRLPRPRPRPQKTPRP: the “shrunken log2 fold change” value is 0.119.

Consider RRIRCRPPRLPRPRPRPTVGPRP, for which the “shrunken log2 fold change” value amounted to 0.224.

As to RRIRERPPRLPRPRPRPQSGPRP, the “shrunken log2 fold change” value was 0.00436.

Consider RRIRMRPPRLPRPRPRPFVSPRP, for which the “shrunken log2 fold change” value is -0.0194.

As for RRIRERPPRLPRPRPRPCSHPRP, the “shrunken log2 fold change” value was -0.0193.

Regarding RRIRERPPRLPRPRPRPDSWPRP, the “shrunken log2 fold change” value was -0.563.

With RRIRTRPPRLPRPRPRPFVFPRP, the “shrunken log2 fold change” value was -0.295.

As for RRIRWRPPRLPRPRPRPLWEPRP, the “shrunken log2 fold change” value was 0.0357.

RRIRHRPPRLPRPRPRPLHYPRP: the “shrunken log2 fold change” value is -0.284.

For RRIRDRPPRLPRPRPRPSCMPRP, the “shrunken log2 fold change” value was determined as 0.0312.

As to RRIRSRPPRLPRPRPRPYKHPRP, the “shrunken log2 fold change” value is -0.734.

With RRIRDRPPRLPRPRPRPDFGPRP, the “shrunken log2 fold change” value is -0.0319.

RRIRIRPPRLPRPRPRPATKPRP: the “shrunken log2 fold change” value was -0.195.

As to RRIRKRPPRLPRPRPRPCQAPRP, the “shrunken log2 fold change” value was found to be 0.157.

As to RRIRDRPPRLPRPRPRPFITPRP, the “shrunken log2 fold change” value is -0.118.

Consider RRIRVRPPRLPRPRPRPEAVPRP, for which the “shrunken log2 fold change” value came out at 0.112.

Consider RRIRPRPPRLPRPRPRPDYRPRP, for which the “shrunken log2 fold change” value was -0.321.

For the sequence RRIRKRPPRLPRPRPRPMVHPRP, the “shrunken log2 fold change” value was -0.079.

Regarding RRIRNRPPRLPRPRPRPYPNPRP, the “shrunken log2 fold change” value was -0.3.

For RRIRDRPPRLPRPRPRPEVGPRP, the “shrunken log2 fold change” value was 0.00896.

Regarding RRIRDRPPRLPRPRPRPMIGPRP, the “shrunken log2 fold change” value came out at 0.266.

With RRIRSRPPRLPRPRPRPLAYPRP, the “shrunken log2 fold change” value amounted to 0.0208.

As to RRIRLRPPRLPRPRPRPWMLPRP, the “shrunken log2 fold change” value is -0.0153.

Regarding RRIRKRPPRLPRPRPRPMPQPRP, the “shrunken log2 fold change” value turned out to be 0.0873.

Consider RRIRLRPPRLPRPRPRPFAWPRP, for which the “shrunken log2 fold change” value is -0.00134.

For RRIRLRPPRLPRPRPRPNDEPRP, the “shrunken log2 fold change” value turned out to be 0.0316.

Take RRIRTRPPRLPRPRPRPCLNPRP: the “shrunken log2 fold change” value was -0.000349.

For the sequence RRIRQRPPRLPRPRPRPMAPPRP, the “shrunken log2 fold change” value stood at 0.0505.

On to RRIRTRPPRLPRPRPRPFDRPRP, for which the “shrunken log2 fold change” value stood at 0.0237.

Turning to RRIRGRPPRLPRPRPRPHCPPRP, the “shrunken log2 fold change” value came to 0.084.

In the case of RRIRTRPPRLPRPRPRPAGKPRP, the “shrunken log2 fold change” value was 0.196.

As to RRIRMRPPRLPRPRPRPRRLPRP, the “shrunken log2 fold change” value was 0.817.

As to RRIRQRPPRLPRPRPRPMSYPRP, the “shrunken log2 fold change” value was -0.01.

As to RRIRYRPPRLPRPRPRPWVGPRP, the “shrunken log2 fold change” value is -0.352.

For the sequence RRIRFRPPRLPRPRPRPICAPRP, the “shrunken log2 fold change” value came out at 0.0631.

Regarding RRIRGRPPRLPRPRPRPIEQPRP, the “shrunken log2 fold change” value is 0.109.

With RRIRLRPPRLPRPRPRPSRGPRP, the “shrunken log2 fold change” value turned out to be 0.0578.

Regarding RRIRSRPPRLPRPRPRPMVIPRP, the “shrunken log2 fold change” value was -0.0364.

As to RRIRERPPRLPRPRPRPEVAPRP, the “shrunken log2 fold change” value turned out to be 0.907.

On to RRIRWRPPRLPRPRPRPDRIPRP, for which the “shrunken log2 fold change” value came to 0.082.

Regarding RRIRGRPPRLPRPRPRPARGPRP, the “shrunken log2 fold change” value came out at 0.915.

Take RRIRHRPPRLPRPRPRPAMSPRP: the “shrunken log2 fold change” value is 0.0912.

Turning to RRIRPRPPRLPRPRPRPFSPPRP, the “shrunken log2 fold change” value is -0.266.

Regarding RRIRPRPPRLPRPRPRPYYIPRP, the “shrunken log2 fold change” value is -0.88.

In the case of RRIRERPPRLPRPRPRPRDRPRP, the “shrunken log2 fold change” value stood at 0.0224.

On to RRIRERPPRLPRPRPRPMLAPRP, for which the “shrunken log2 fold change” value worked out at 0.193.

Regarding RRIRHRPPRLPRPRPRPCNLPRP, the “shrunken log2 fold change” value was -0.135.

With RRIRHRPPRLPRPRPRPRWWPRP, the “shrunken log2 fold change” value amounted to 0.00789.

As to RRIRVRPPRLPRPRPRPPVDPRP, the “shrunken log2 fold change” value was found to be 0.0819.

With RRIRCRPPRLPRPRPRPFDTPRP, the “shrunken log2 fold change” value was -0.192.

Turning to RRIRWRPPRLPRPRPRPHIPPRP, the “shrunken log2 fold change” value is -0.227.

With RRIRGRPPRLPRPRPRPRHGPRP, the “shrunken log2 fold change” value amounted to 0.264.

Regarding RRIRTRPPRLPRPRPRPISAPRP, the “shrunken log2 fold change” value is 0.259.

In the case of RRIRRRPPRLPRPRPRPTSGPRP, the “shrunken log2 fold change” value came to 0.252.

On to RRIRQRPPRLPRPRPRPCITPRP, for which the “shrunken log2 fold change” value was -0.167.

Turning to RRIRLRPPRLPRPRPRPNNWPRP, the “shrunken log2 fold change” value was -0.275.

Consider RRIRRRPPRLPRPRPRPWHSPRP, for which the “shrunken log2 fold change” value was -0.254.

For the sequence RRIRYRPPRLPRPRPRPHKEPRP, the “shrunken log2 fold change” value came to 0.103.

RRIRPRPPRLPRPRPRPIDVPRP: the “shrunken log2 fold change” value is -0.148.

Regarding RRIRRRPPRLPRPRPRPHHPPRP, the “shrunken log2 fold change” value is -0.0853.

With RRIRIRPPRLPRPRPRPLGYPRP, the “shrunken log2 fold change” value is -0.303.

As for RRIRARPPRLPRPRPRPMYPPRP, the “shrunken log2 fold change” value was -0.79.

Regarding RRIRGRPPRLPRPRPRPTYIPRP, the “shrunken log2 fold change” value amounted to 0.111.

Turning to RRIRFRPPRLPRPRPRPTLSPRP, the “shrunken log2 fold change” value was determined as 0.0323.

Consider RRIRCRPPRLPRPRPRPGPPPRP, for which the “shrunken log2 fold change” value is 0.942.

For RRIRIRPPRLPRPRPRPSMQPRP, the “shrunken log2 fold change” value was -0.221.

For RRIRTRPPRLPRPRPRPAHLPRP, the “shrunken log2 fold change” value is -0.000138.

On to RRIRHRPPRLPRPRPRPTMYPRP, for which the “shrunken log2 fold change” value was 0.000437.

Regarding RRIRTRPPRLPRPRPRPDREPRP, the “shrunken log2 fold change” value was -0.0115.

RRIRHRPPRLPRPRPRPETLPRP: the “shrunken log2 fold change” value is -0.18.

Consider RRIRYRPPRLPRPRPRPPSAPRP, for which the “shrunken log2 fold change” value came to 0.388.

RRIRFRPPRLPRPRPRPIRDPRP: the “shrunken log2 fold change” value was found to be 0.0144.

As for RRIRARPPRLPRPRPRPAAMPRP, the “shrunken log2 fold change” value was 0.856.

With RRIRGRPPRLPRPRPRPFQWPRP, the “shrunken log2 fold change” value was -0.0859.

Turning to RRIRIRPPRLPRPRPRPWREPRP, the “shrunken log2 fold change” value was found to be 0.158.

Turning to RRIRKRPPRLPRPRPRPRQHPRP, the “shrunken log2 fold change” value is 0.499.

As for RRIRKRPPRLPRPRPRPGQPPRP, the “shrunken log2 fold change” value came to 0.0678.

For the sequence RRIRTRPPRLPRPRPRPRRLPRP, the “shrunken log2 fold change” value was found to be 0.172.

As to RRIRARPPRLPRPRPRPHSRPRP, the “shrunken log2 fold change” value is -0.0946.

Consider RRIRNRPPRLPRPRPRPIEHPRP, for which the “shrunken log2 fold change” value is -0.307.

As for RRIRKRPPRLPRPRPRPCLNPRP, the “shrunken log2 fold change” value was found to be 0.00932.

With RRIRWRPPRLPRPRPRPVFVPRP, the “shrunken log2 fold change” value is -0.0738.

Turning to RRIRCRPPRLPRPRPRPWIQPRP, the “shrunken log2 fold change” value was -0.000687.

As for RRIRERPPRLPRPRPRPGHIPRP, the “shrunken log2 fold change” value is -0.0236.

RRIRTRPPRLPRPRPRPWDNPRP: the “shrunken log2 fold change” value was -0.0778.

As to RRIRHRPPRLPRPRPRPDHSPRP, the “shrunken log2 fold change” value was -0.00651.

For RRIRHRPPRLPRPRPRPCIHPRP, the “shrunken log2 fold change” value is -0.345.

For the sequence RRIRHRPPRLPRPRPRPYMFPRP, the “shrunken log2 fold change” value was -0.319.

On to RRIRWRPPRLPRPRPRPPDHPRP, for which the “shrunken log2 fold change” value is 0.594.

Turning to RRIRRRPPRLPRPRPRPKVEPRP, the “shrunken log2 fold change” value was -0.0016.

For RRIRNRPPRLPRPRPRPWHVPRP, the “shrunken log2 fold change” value stood at 0.0188.

On to RRIRPRPPRLPRPRPRPITGPRP, for which the “shrunken log2 fold change” value is -0.189.

As for RRIRKRPPRLPRPRPRPKAPPRP, the “shrunken log2 fold change” value is 0.62.

On to RRIRFRPPRLPRPRPRPGVLPRP, for which the “shrunken log2 fold change” value was found to be 0.0194.

Regarding RRIRCRPPRLPRPRPRPEHSPRP, the “shrunken log2 fold change” value stood at 0.0871.

As to RRIRVRPPRLPRPRPRPNQMPRP, the “shrunken log2 fold change” value is -0.092.

As for RRIRYRPPRLPRPRPRPQEWPRP, the “shrunken log2 fold change” value is -0.000687.

Regarding RRIRIRPPRLPRPRPRPWHNPRP, the “shrunken log2 fold change” value is -0.169.
